In patent US5821048, “Methods, kits, and compositions for diagnosing papillomavirus infection” (President and Fellows of Harvard College, dated 1998):

T1: full length BPV-1 E2 protein, in vitro translated (bovine papillomavirus-1, 35S-methionine-labelled)
T1 chain: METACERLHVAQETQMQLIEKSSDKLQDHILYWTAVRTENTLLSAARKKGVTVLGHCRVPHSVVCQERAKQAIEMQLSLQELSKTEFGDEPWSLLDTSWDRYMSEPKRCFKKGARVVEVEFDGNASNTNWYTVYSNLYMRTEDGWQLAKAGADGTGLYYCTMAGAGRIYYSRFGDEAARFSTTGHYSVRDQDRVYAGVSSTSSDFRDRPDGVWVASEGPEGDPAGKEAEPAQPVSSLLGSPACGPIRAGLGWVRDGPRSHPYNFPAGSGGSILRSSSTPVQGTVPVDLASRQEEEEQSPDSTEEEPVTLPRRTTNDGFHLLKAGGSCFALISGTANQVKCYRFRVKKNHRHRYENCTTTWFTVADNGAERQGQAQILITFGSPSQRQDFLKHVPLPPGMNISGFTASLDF

T2: BPV-1 E2 protein bearing a deletion of the amino terminal 52 amino acids (bovine papillomavirus-1, 35S-methionine-labelled)
T2 chain: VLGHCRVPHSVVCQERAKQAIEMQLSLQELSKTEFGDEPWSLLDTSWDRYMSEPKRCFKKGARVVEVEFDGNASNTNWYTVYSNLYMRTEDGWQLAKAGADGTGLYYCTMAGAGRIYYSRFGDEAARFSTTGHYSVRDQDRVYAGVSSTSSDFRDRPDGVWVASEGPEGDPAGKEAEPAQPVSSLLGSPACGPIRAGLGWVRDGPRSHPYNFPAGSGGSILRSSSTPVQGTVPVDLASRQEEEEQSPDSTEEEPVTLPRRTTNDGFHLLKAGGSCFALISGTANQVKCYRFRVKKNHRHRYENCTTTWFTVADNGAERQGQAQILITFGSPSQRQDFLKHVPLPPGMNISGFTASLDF

T3: BPV-1 E2 (aa161-410) (bovine papillomavirus-1, 35S-methionine-labelled)
T3 chain: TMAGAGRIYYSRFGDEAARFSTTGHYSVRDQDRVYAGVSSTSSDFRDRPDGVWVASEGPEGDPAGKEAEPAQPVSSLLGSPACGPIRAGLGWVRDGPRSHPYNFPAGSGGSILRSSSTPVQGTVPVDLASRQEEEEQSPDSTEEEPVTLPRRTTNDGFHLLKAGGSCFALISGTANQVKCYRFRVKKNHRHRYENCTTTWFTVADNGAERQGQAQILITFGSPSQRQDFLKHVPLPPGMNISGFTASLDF

B1: GST fusion protein containing amino acids 200-424 of SEQ ID NO:1 (BPV-1 E1) (other)
chain: AEVFFEASFELLKKQCSFLQMQKRSHEGGTCAVYLICFNTAKSRETVRNLMANTLNVREECLMLQPAKIRGLSAALFWFKSSLSPATLKHGALPEWIRAQTTLNESLQTEKFDFGTMVQWAYDHKYAEESKIAYEYALAAGSDSNARAFLATNSQAKHVKDCATMVRHYLRAETQALSMPAYIKARCKLATGEGSWKSILTFFNYQNIELITFINALKLWLKGIP
B2: BPV-1 E1 (amino acids 1-222)-GST fusion protein (other)
chain: MANDKGSNWDSGLGCSYLLTEAECESDKENEEPGAGVELSVESDRYDSQDEDFVDNASVFQGNHLEVFQALEKKAGEEQILNLKRKVLGSSQNSSGSEASETPVKRRKSGAKRRLFAENEANRVLTPLQVQGEGEGRQELNEEQAISHLHLQLVKSKNATVFKLGLFKSLFLCSFHDITRLFKNDKTTNQQWVLAVFGLAEVFFEASFELLKKQCSFLQMQK
B3: GST fusion protein containing BPV-1 E1 amino acids 1-128 (other)
chain: MANDKGSNWDSGLGCSYLLTEAECESDKENEEPGAGVELSVESDRYDSQDEDFVDNASVFQGNHLEVFQALEKKAGEEQILNLKRKVLGSSQNSSGSEASETPVKRRKSGAKRRLFAENEANRVLTPL

How the values were obtained:
[1] = molecular target: T1, full length BPV-1 E2 protein, in vitro …; assay: GST pull-down of in vitro translated 35S-E2
[2] = molecular target: T2, BPV-1 E2 protein bearing a deletion of …; assay: GST pull-down of in vitro translated 35S-E2 forms
[3] = molecular target: T3, BPV-1 E2 (aa161-410); assay: GST pull-down of in vitro translated 35S-E2 forms

| Binder | binding result [1] | binding result [2] | binding result [3] |
| --- | --- | --- | --- |
| B1 | no binding |  |  |
| B2 |  | no binding | no binding |
| B3 | no binding |  |  |
